T1: recombinant human CEACAM-3/CD66d protein (Sino Biological; Cat. No. 11933-H08H) (human, UniProt P40198 35-155)
T1 construct: Bought protein; also called HCCM3
T1 sequence (looked up): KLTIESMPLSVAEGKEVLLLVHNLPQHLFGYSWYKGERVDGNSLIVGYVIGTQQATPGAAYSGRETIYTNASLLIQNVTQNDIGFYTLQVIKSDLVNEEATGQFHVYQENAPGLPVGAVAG

T2: recombinant human CEACAM-5/CD66e protein (R&D systems; Cat. No. 4128-CM) (human, UniProt P06731 35-685)
T2 construct: Bought protein; also called HCCM5
T2 sequence (looked up): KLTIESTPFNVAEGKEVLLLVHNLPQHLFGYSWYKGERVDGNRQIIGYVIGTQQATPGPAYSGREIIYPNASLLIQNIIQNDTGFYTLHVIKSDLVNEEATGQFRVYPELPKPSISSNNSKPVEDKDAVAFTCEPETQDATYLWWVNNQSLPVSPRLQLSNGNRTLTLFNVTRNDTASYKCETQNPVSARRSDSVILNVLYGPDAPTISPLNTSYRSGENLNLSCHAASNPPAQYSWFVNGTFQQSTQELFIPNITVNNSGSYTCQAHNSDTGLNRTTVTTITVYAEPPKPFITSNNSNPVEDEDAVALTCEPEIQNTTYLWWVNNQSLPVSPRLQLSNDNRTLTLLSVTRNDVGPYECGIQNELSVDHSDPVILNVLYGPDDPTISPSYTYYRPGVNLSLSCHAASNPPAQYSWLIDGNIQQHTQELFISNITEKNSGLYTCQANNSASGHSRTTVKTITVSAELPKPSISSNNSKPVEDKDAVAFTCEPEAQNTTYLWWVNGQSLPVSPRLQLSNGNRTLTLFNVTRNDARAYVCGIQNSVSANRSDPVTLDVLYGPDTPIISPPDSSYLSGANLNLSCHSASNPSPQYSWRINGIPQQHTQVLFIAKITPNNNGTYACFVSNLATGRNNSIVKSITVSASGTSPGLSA

B1: C19 (antibody, human IgG4 S228P, lambda, V domains shown)
VH: EVQLLESGGGLVQPGGSLRLSCAASGFTFSGYAMSWVRQAPGKGLEWVSGIYHDGGSTYYADSVKGRFTISRDNSKNTLYLQMNSLRAEDTAVYYCARVTVLCTTYGCSSYDGMDVWGQGTLVTVSS
VL: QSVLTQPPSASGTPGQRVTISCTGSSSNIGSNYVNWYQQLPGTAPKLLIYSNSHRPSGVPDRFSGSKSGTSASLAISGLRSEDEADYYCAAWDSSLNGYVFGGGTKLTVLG
B2: C18 (antibody, human IgG4 S228P, lambda, V domains shown)
VH: EVQLLESGGGLVQPGGSLRLSCAASGFTFSNYDMSWVRQAPGKGLEWVSGISHSSGSKYYADSVKGRFTISRDNSKNTLYLQMNSLRAEDTAVYYCARDPLPCLIPKCSYYYAMDVWGQGTLVTVSS
VL: QSVLTQPPSAPGTPGQRVTISCSGSSSNIGSNAVTWYQQLPGTAPKLLIYADSHRPSGVPDRFSGSKSGTSASLAISGLRSEDEADYYCGSWDDSLNAYVFGGGTKLTVLG
B3: C25 (antibody, human IgG4 S228P, lambda, V domains shown)
VH: EVQLLESGGGLVQPGGSLRLSCAASGFTFSNYAMSWVRQAPGKGLEWVSVISHGGGSIYYADSVKGRLTISRDNSKNTLYLQMNSLRAEDTAVYYCARDPTKGYAPTFDYWGQGTLVTVSS
VL: QSVLTQPPSASGTPGQRVTISCSGSSSNIGNNYVSWYQQLPGTAPKLLIYADSKRPSGVPDRFSGSKSGTSASLAISGLRSEDEADYYCGAWDASLNGYVFGGGTKLTVLG
notes: Made in ExpiHEK293F cells, protein A purified. huIgG4 is the isotype control and anti-huIgG4 the detection reagent; the isotype is not otherwise stated; also called anti-CEACAM1 antibody C25
B4: C17 (antibody, human IgG4 S228P, lambda, V domains shown)
VH: EVQLLESGGGLVQPGGSLRLSCAASGFTFSDYSMSWVRQAPGKGLEWVSVIYPDDGNTYYADSVKGRFTISRDNSKNTLYLQMNSLRAEDTAVYYCARGSIWWLSLIPSSYNAMDVWGQGTLVAVSS
VL: QSVLTQPPSASGTPGQRVTISCSGSSSNIGNNAVNWYQQLPGTAPKLLIYANSHRPSGVPDRFSGSKSGTSASLAISGLRSEDEADYYCGAWDASLNGYVFGGGTKLTVLG
B5: C26 (antibody, human IgG4 S228P, lambda, V domains shown)
VH: EVQLLESGGGLVQPGGSLRLSCAASGFTFSGYDMSWVRQAPGKGLEWVSWISYGGGSIYYADSVKGRFTISRDNSKNTLYLQMNSLRAEDTAVYYCAKDRLPQKAVRHSYANGMDVWGQGTLVTVSS
VL: QSVLTQPPSASGTPGQRVTISCSGSSSNIGNNYVTWYQQLPGTAPKLLIYADSHRPSGVPDRFSGSKSGTSASLAISGLRSEDEADYYCGAWDYSLSGYVFGGGTKLTVLG
B6: C15 (antibody, human IgG4 S228P, lambda, V domains shown)
VH: EVQLLESGGGLVQPGGSLRLSCAASGFTFSSYSMSWVRQAPGKGLEWVSSISPNGGNKYYADSVKGRFTISRDNSKNTLYLQMNSLGAEDTAVYYCAKDPYNIYQPLFDYWGQGTLVTVSS
VL: QSVLTQPLSASGTPGQRVTISCSGSSSNIGNNYVNWYQQLPGTAPKLLIYANSNRPSGVPDRFSGSKSGTSASLAISGLRSEEEADYYCGTWDASLSAYVFGGGTKLTVLG

Legend:
[1] = biological target: T1, recombinant human CEACAM-3/CD66d …; experiment: ELISA on coated antigen (0.25 µg/ml), HRP anti-human IgG Fab, OD450
Description: (§1) All of the recombinant human CEACAM-1/CD66a protein (R&D systems; Cat. No. 2244-CM, HCCM1), recombinant human CEACAM-5/CD66e protein (R&D systems; Cat. No. 4128-CM, HCCM5), recombinant human CEACAM-6/CD66c protein (R&D systems; Cat. No. 3934-CM, HCCM6), recombinant human CEACAM-3/CD66d protein (Sino Biological; Cat. No. 11933-H08H, HCCM3), recombinant mouse PD-1 Fc chimeric protein (R&D systems; Cat. No. 1021-PD, mPD-1-Fc), recombinant CEACAM1-Fc (IgG4) protein (Mogam, in-house production, HCCM1-Fc), recombinant human CEACAM-1/CD66a protein Bulk (R&D systems; Cat. No. 2244-CM, HCCM1 (bulk)) and mouse CEACAM1/CD66a protein (Sino Biological; Cat. No. 50571-M08H, mouse CCM1) (2.5 μg each) were dissolved in 10 ml of PBS, respectively and dispensed into a 96-well plate (Nunc; Cat. No. 467679) at 100 μl/well, which was incubated overnight at 4° C. Thereafter, each well was treated with 300 μl of 1% (v/v) bovine serum albumin, which was incubated at 37° C. for 1 hour.
(§2) The diluted antibodies were dispensed into each well coated with each protein at 100 μl/well, which was incubated at 37° C. for 1 hour. Then, each well was washed 3 times with a washing buffer prepared by diluting 10 μl of Tween 20 (Sigma-Aldrich; Cat. No. P9146) in 990 μl of PBS. Thereafter, 2 μl of HRP-conjugated human anti-IgG-Fab antibody (anti-human IgG Fab; Sigma; Cat. No. A0293) was diluted in 10 ml of PBS, added to the wells at 100 μl/well, and incubated for 1 hour.
(§3) After completion of the reaction, the wells were washed three times with the washing buffer, and 100 μl of TMB solution was added to each well to induce color development. Then, 100 μl of 2 M H₂SO₄ was added to each well to stop the reaction, and the absorbance was measured at a wavelength of 450 nm.

[2] = biological target: T1, recombinant human CEACAM-3/CD66d …; experiment: ELISA on coated antigen (0.25 µg/ml), HRP anti-human IgG Fc, OD450
Description: All of the recombinant human CEACAM-1/CD66a protein (R&D systems; Cat No. 2244-CM, HCCM1), recombinant human CEACAM-5/CD66e protein (R&D systems; Cat. No. 4128-CM, HCCM5), recombinant human CEACAM-6/CD66c protein (R&D systems; Cat. No. 3934-CM, HCCM6), recombinant human CEACAM-3/CD66d protein (Sino Biological; Cat. No. 11933-H08H, HCCM3), human B7-H5/Gi24/VISTA protein (Sino Biological; Cat. No. 13482-H08H, HVISTA), recombinant human CEACAM-1/CD66a protein Bulk (R&D systems; Cat. No. 2244-CM, HCCM1 (bulk)), recombinant human CEACAM1-N domain-Kappa protein (Mogam, in-house production, HCCM1-N domain-kappa), and BSA protein (2.5 μg each) were dissolved in 10 ml of PBS, respectively, and dispensed into a 96-well plate at 100 μl/well, which was incubated at 4° C. overnight. Thereafter, each well was treated with 300 μl of 1% (v/v) bovine serum albumin, and incubated at 37° C. for 1 hour.
as §2, with “and” for “which was”, “anti-IgG-Fc” for “anti-IgG-Fab”, “Fc, Sigma” for “Fab; Sigma;”, “A0170)” for “A0293)”
as §3

[3] = biological target: T2, recombinant human CEACAM-5/CD66e …; experiment: ELISA on coated antigen (0.25 µg/ml), HRP anti-human IgG Fab, OD450
Description: as §1, §2, §3

| Binder | binding result [1] | binding result [2] | binding result [3] |
| --- | --- | --- | --- |
| B1 | no binding (tested: 3 µg/ml (single concentration)) | – | – |
| B2 | – | no binding (tested: 3 µg/ml (single concentration)) | no binding (tested: 3 µg/ml (single concentration)) |
| B3 | no binding (tested: 3 µg/ml (single concentration)) | – | no binding (tested: 3 µg/ml (single concentration)) |
| B4 | – | no binding (tested: 3 µg/ml (single concentration)) | – |
| B5 | no binding (tested: 3 µg/ml (single concentration)) | – | no binding (tested: 3 µg/ml (single concentration)) |
| B6 | – | no binding (tested: 3 µg/ml (single concentration)) | no binding (tested: 3 µg/ml (single concentration)) |

Source: US20200109196A1 (MOGAM INSTITUTE FOR BIOMEDICAL RESEARCH, published 2020)
